# Measured values published in article PMC4564764, “Collagen Q and anti-MuSK autoantibody competitively suppress agrin/LRP4/MuSK signaling” (Scientific Reports, 2015).
# T1: purified recombinant ectodomain of human MuSK fused to myc (hMuSKect-myc), wild type (human, UniProt O15146 24-495)
# T1 construct: muscle-specific receptor tyrosine kinase (MuSK), human, ectodomain (Ig1, Ig2, Ig3, C6 box, Ig4); It holds the C6 box, since a ΔC6 form was made from it; also called Wt; source: HEK293, transfected with phMUSKect-myc; in lysate for co-IP; not shown: myc, C-terminal, kept
# T1 sequence (looked up): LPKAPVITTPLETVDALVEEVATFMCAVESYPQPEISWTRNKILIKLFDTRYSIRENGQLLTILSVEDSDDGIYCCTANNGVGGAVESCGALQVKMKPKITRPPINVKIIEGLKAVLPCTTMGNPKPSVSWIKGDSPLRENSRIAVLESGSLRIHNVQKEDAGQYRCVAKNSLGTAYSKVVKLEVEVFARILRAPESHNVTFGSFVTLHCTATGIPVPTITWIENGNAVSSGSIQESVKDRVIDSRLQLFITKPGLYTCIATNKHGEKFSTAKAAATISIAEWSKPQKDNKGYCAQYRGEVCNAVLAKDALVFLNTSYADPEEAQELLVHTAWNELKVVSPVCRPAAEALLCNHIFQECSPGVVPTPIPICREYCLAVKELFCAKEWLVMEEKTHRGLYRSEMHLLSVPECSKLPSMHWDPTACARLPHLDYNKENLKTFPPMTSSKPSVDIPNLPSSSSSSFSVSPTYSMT
# Target: T1, purified recombinant ectodomain of …
# Assay: ELISA; in vitro plate-binding assay: 0.15 ug hMuSKect-myc coated on a Maxi-Sorp plate, blocked with 1% BSA; 0.12 ug hLRP4N-FLAG overlaid with or without 0.24 ug rat neural agrin, room temperature 2 h; bound hLRP4N-FLAG read with anti-FLAG-HRP, normalised to that without agrin
# Details: both partners purified
binder,measurement,value
"N-terminal ectodomain of human LRP4 fused to FLAG (hLRP4N-FLAG) (domain or fragment, UniProt O75096 21-1725, looked up, low-density lipoprotein receptor-related protein 4 (LRP4), human, printed as 'the N-terminal ectodomain of human LRP4'; also called hLRP4-FLAG; source: HEK293, transfected with phLRP4N-FLAG; in lysate for co-IP; not shown: FLAG, C-terminal, kept) SSPECACGRSHFTCAVSALGECTCIPAQWQCDGDNDCGDHSDEDGCILPTCSPLDFHCDNGKCIRRSWVCDGDNDCEDDSDEQDCPPRECEEDEFPCQNGYCIRSLWHCDGDNDCGDNSDEQCDMRKCSDKEFRCSDGSCIAEHWYCDGDTDCKDGSDEENCPSAVPAPPCNLEEFQCAYGRCILDIYHCDGDDDCGDWSDESDCSSHQPCRSGEFMCDSGLCINAGWRCDGDADCDDQSDERNCTTSMCTAEQFRCHSGRCVRLSWRCDGEDDCADNSDEENCENTGSPQCALDQFLCWNGRCIGQRKLCNGVNDCGDNSDESPQQNCRPRTGEENCNVNNGGCAQKCQMVRGAVQCTCHTGYRLTEDGHTCQDVNECAEEGYCSQGCTNSEGAFQCWCETGYELRPDRRSCKALGPEPVLLFANRIDIRQVLPHRSEYTLLLNNLENAIALDFHHRRELVFWSDVTLDRILRANLNGSNVEEVVSTGLESPGGLAVDWVHDKLYWTDSGTSRIEVANLDGAHRKVLLWQNLEKPRAIALHPMEGTIYWTDWGNTPRIEASSMDGSGRRIIADTHLFWPNGLTIDYAGRRMYWVDAKHHVIERANLDGSHRKAVISQGLPHPFAITVFEDSLYWTDWHTKSINSANKFTGKNQEIIRNKLHFPMDIHTLHPQRQPAGKNRCGDNNGGCTHLCLPSGQNYTCACPTGFRKISSHACAQSLDKFLLFARRMDIRRISFDTEDLSDDVIPLADVRSAVALDWDSRDDHVYWTDVSTDTISRAKWDGTGQEVVVDTSLESPAGLAIDWVTNKLYWTDAGTDRIEVANTDGSMRTVLIWENLDRPRDIVVEPMGGYMYWTDWGASPKIERAGMDASGRQVIISSNLTWPNGLAIDYGSQRLYWADAGMKTIEFAGLDGSKRKVLIGSQLPHPFGLTLYGERIYWTDWQTKSIQSADRLTGLDRETLQENLENLMDIHVFHRRRPPVSTPCAMENGGCSHLCLRSPNPSGFSCTCPTGINLLSDGKTCSPGMNSFLIFARRIDIRMVSLDIPYFADVVVPINITMKNTIAIGVDPQEGKVYWSDSTLHRISRANLDGSQHEDIITTGLQTTDGLAVDAIGRKVYWTDTGTNRIEVGNLDGSMRKVLVWQNLDSPRAIVLYHEMGFMYWTDWGENAKLERSGMDGSDRAVLINNNLGWPNGLTVDKASSQLLWADAHTERIEAADLNGANRHTLVSPVQHPYGLTLLDSYIYWTDWQTRSIHRADKGTGSNVILVRSNLPGLMDMQAVDRAQPLGFNKCGSRNGGCSHLCLPRPSGFSCACPTGIQLKGDGKTCDPSPETYLLFSSRGSIRRISLDTSDHTDVHVPVPELNNVISLDYDSVDGKVYYTDVFLDVIRRADLNGSNMETVIGRGLKTTDGLAVDWVARNLYWTDTGRNTIEASRLDGSCRKVLINNSLDEPRAIAVFPRKGYLFWTDWGHIAKIERANLDGSERKVLINTDLGWPNGLTLDYDTRRIYWVDAHLDRIESADLNGKLRQVLVSHVSHPFALTQQDRWIYWTDWQTKSIQRVDKYSGRNKETVLANVEGLMDIIVVSPQRQTGTNACGVNNGGCTHLCFARASDFVCACPDEPDSRPCSLVPGLVPPAPRATGMSEKSPVLPNTPPTTLYSSTTRTRTSLEEVEGRCSERDARLGLCARSNDAVPAAPGEGLHIS",fold increase of bound hLRP4N-FLAG with agrin over without agrin,36 fold
